Test results published in paper PMC5591402 (2017).
Like-named read-outs stand apart in the source and are kept apart here. Where no end group is shown, it is not given here.

B12: TAMRA-labeled α-synuclein peptide (peptide)
peptide: GYQDYEPEA
modifications: also: TAMRA fluorophore, position not given here

How the values were obtained:
Test in all cases: FP
[1] = molecular target: B12
[2] = molecular target: B12
I55V/N2.12 = molecular target: I55V/N2.12
N2.8 = molecular target: N2.8
N2.2 = molecular target: N2.2
N2.15 = molecular target: N2.15
N2.3 = molecular target: N2.3
N2.6 = molecular target: N2.6
N2.9 = molecular target: N2.9
N2.4 = molecular target: N2.4
N2.1 = molecular target: N2.1
N2.13 = molecular target: N2.13
N2.10 = molecular target: N2.10
N2.14 = molecular target: N2.14
N2.11 = molecular target: N2.11
N2.7 = molecular target: N2.7

B1: N2.5 VHH (VHH)
VHH: QGQLVESGGGSVQAGGSLRLSCAASGIDSSSYCMGWFRQRPGKEREGVARINGLSGVKTAYADSVKDRFTISRDNAENTVYLQMNSLKPEDTAIYYCAAKSSPGYCGGTWFSFGYWGQGTQVTVSS
Kd [1]: 55.3 nM

B2: N2.17 reversion mutant S100d (VHH)
VHH: QGQLVESGGGSVQAGGSLRLSCAASGIDSSSYCMGWFRQRPGKEREGVARINGWGGVKTAYADSVKDRFTISRDNAENTVYLQMNSLKPEDTAIYYCAAKSSPGYCGGSWFNFGYWGQGTQVTVSS
Kd [2]: 27.5 nM

B3: N2.12 reversion mutant S100d (VHH)
VHH: QGQLVESGGGSVQAGGSLRLSCAASGIDSSSYCMGWFRQRPGKEREGVGRINGWRGIKTAYADSVKDRFTISRDNAENTVYLQMNSLKPEDTAIYYCAAKSSPGYCGGSWSNFGYWGQGTQVTVSS
Kd [2]: 11.9 nM

B4: N2.12 reversion mutant G53 (VHH)
VHH: QGQLVESGGGSVQAGGSLRLSCAASGIDSSSYCMGWFRQRPGKEREGVGRINGWGGIKTAYADSVKDRFTISRDNAENTVYLQMNSLKPEDTAIYYCAAKSSPGYCGGTWSNFGYWGQGTQVTVSS
Kd [2]: 14.1 nM

B5: N2.12 reversion mutant F96 (VHH)
VHH: QGQLVESGGGSVQAGGSLRLSCAASGIDSSSYCMGWFRQRPGKEREGVGRINGWRGIKTAYADSVKDRFTISRDNAENTVYLQMNSLKPEDTAIYYCAAKFSPGYCGGTWSNFGYWGQGTQVTVSS
Kd [2]: 18.6 nM

B6: N2.12 reversion mutant A49 (VHH)
VHH: QGQLVESGGGSVQAGGSLRLSCAASGIDSSSYCMGWFRQRPGKEREGVARINGWRGIKTAYADSVKDRFTISRDNAENTVYLQMNSLKPEDTAIYYCAAKSSPGYCGGTWSNFGYWGQGTQVTVSS
Kd [2]: 8.2 nM

B7: N2.12 reversion mutant L52b (VHH)
VHH: QGQLVESGGGSVQAGGSLRLSCAASGIDSSSYCMGWFRQRPGKEREGVGRINGLRGIKTAYADSVKDRFTISRDNAENTVYLQMNSLKPEDTAIYYCAAKSSPGYCGGTWSNFGYWGQGTQVTVSS
Kd [2]: 16.9 nM

B8: N2.17 reversion mutant F96 (VHH)
VHH: QGQLVESGGGSVQAGGSLRLSCAASGIDSSSYCMGWFRQRPGKEREGVARINGWGGVKTAYADSVKDRFTISRDNAENTVYLQMNSLKPEDTAIYYCAAKFSPGYCGGTWFNFGYWGQGTQVTVSS
Kd [2]: 72.2 nM

B9: N2.17 reversion mutant L52b (VHH)
VHH: QGQLVESGGGSVQAGGSLRLSCAASGIDSSSYCMGWFRQRPGKEREGVARINGLGGVKTAYADSVKDRFTISRDNAENTVYLQMNSLKPEDTAIYYCAAKSSPGYCGGTWFNFGYWGQGTQVTVSS
Kd [2]: 30 nM

B10: N2.16 VHH (VHH)
VHH: QGQLVESGGGSVQAGGSLRLSCAASGIDSSSYCMGWFRQRPGKEREGVGRINGWSGVKTAYADSVKDRFTISRDNAENTVYLQMNSLKPEDTAIYYCAAKSSPGYCGGTWYNFGYWGQGTQVTVSS
Kd [1]: 11.2 nM

B11: N2.17 reversion mutant S100f (VHH)
VHH: QGQLVESGGGSVQAGGSLRLSCAASGIDSSSYCMGWFRQRPGKEREGVARINGWGGVKTAYADSVKDRFTISRDNAENTVYLQMNSLKPEDTAIYYCAAKSSPGYCGGTWSNFGYWGQGTQVTVSS
Kd [2]: 11 nM

B12
Kd (I55V/N2.12): 5.7 nM | Kd (N2.8): 28.5 nM | Kd (N2.2): 23 nM | Kd (N2.15): 23.1 nM | Kd (N2.3): 11.4 nM | Kd (N2.6): 25.1 nM | Kd (N2.9): 28 nM | Kd (N2.4): 14.3 nM | Kd (N2.1): 14.3 nM | Kd (N2.13): 20.3 nM | Kd (N2.10): 31.6 nM | Kd (N2.14): 16.2 nM | Kd (N2.11): 21.6 nM | Kd (N2.7): 15.1 nM
